T1: hTEM8(ED)-Fc fusion protein (human; mouse, UniProt Q9H6X2 33-321)
T1 construct: also called TEM8-Fc; human TEM8-Fc
T1 sequence: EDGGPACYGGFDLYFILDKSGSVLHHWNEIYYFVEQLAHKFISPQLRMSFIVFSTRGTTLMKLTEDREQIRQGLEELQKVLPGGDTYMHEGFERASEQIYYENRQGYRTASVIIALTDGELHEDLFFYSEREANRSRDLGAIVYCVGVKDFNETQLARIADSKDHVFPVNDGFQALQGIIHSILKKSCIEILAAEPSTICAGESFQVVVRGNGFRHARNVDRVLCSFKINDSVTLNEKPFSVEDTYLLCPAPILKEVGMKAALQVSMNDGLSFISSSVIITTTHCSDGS

B1: L5-mIgG2a (antibody, V domains shown)
VH: QVQLVESGGGLVQPGGSLRLSCAASGFTFNSYGLSWVRQAPGKGLEWVSNISSNGSYTYYADSVKGRFTISRDNSKNTLYLQMNSLRAEDTAVYYCARAGYGLFDVWGQGTLVTVSS
VL: DIELTQPPSVSVAPGQTARISCSGDKLREYYVHWYQQKPGQAPVLVIYGDNKRPSGIPERFSGSNSGNTATLTISGTQAEDEADYYCSSWAGSRSGTVFGGGTKLTVL
notes: also called L5 full IgG
B2: L1 Fab (Fab, V domains shown)
VH: QVQLVESGGGLVQPGGSLRLSCAASGFTFNSYAMSWVRQAPGKGLEWVSLISSGSSTYYADSVKGRFTISRDNSKNTLYLQMNSLRAEDTAVYYCARAGFKFDNWGQGTLVTVSS
VL: DIELTQPPSVSVAPGQTARISCSGDSIPNYSVSWYQQKPGQAPVLVIYADSNRPSGIPERFSGSNSGNTATLTISGTQAEDEADYYCQSYDNTSPDLVFGGGTKLTVLG

What was measured:
[1] = target: T2, flag-tagged human TEM8 on 293 cells (293/Flag-hTEM8) (human, UniProt Q9H6X2 33-564); assay: flow cytometry titration on 293/Flag-hTEM8 cells, FITC anti-mouse secondary (FIG. 9B)
T2 construct: also called 293/Flag-huTEM8; 293/hFlag-TEM8

[2] = target: T2, flag-tagged human TEM8 on 293 cells …; assay: immunofluorescence and flow cytometry on 293/Flag-hTEM8 cells
[3] = target: T3, mouse TEM8 on 293 cells (293/mTEM8) (mouse, UniProt Q9CZ52 31-562); assay: flow cytometry on 293/mTEM8 cells (FIG. 8C)
T3 construct: whole, on cells

[4] = target: T1, hTEM8(ED)-Fc fusion protein; assay: ELISA on biotinylated human TEM8-Fc captured on neutravidin

Row | EC50 [1] | binding result [2] | binding result [3] | binding result [4] | Binder
1 | 2.8 nM |  |  |  | B1
2 |  | binds | binds | binds | B2

Reference: patent US20140134179A1 (Novartis, published 2014)
